Among the data in the FLAb antibody collection (doi:10.7554/elife.23156) are Kd and yeast surface expression values, retold here.

B1: scFv; the commonest letter at each place (parent)
chain 1: EVKLDETGGGLVQPGRPMKLSCVASGFTFSDYWMNWVRQSPEKGLEWVAQIRNKPYNYETYYSDSVKGRFTISRDDSKSSVYLQMNNLRVEDMGIYYCTGSYYGMDYWGQGTSVTVS
chain 2: DVVMTQTPLSLPVSLGDQASISCRSSQSLVHSNGNTYLRWYLQKPGQSPKVLIYKVSNRFSGVPDRFSGSGSGTDFTLKISRVEAEDLGVYFCSQSTHVPWTFGGGTKLEIK

Variants of B1 are the subject of series [1]. Kind of series: Kd (Tite-Seq). The note with it: with fluorescein; format: scFv 4-4-20, heavy + light.
Series [2] covers variants of B1. Kind of series: yeast surface expression (ratio to wild type); higher = more expressed. Particulars: format: scFv 4-4-20, heavy + light.

One may read the Kd as the free concentration of one partner at which half of the binding sites on the other are occupied at equilibrium, for simple one-to-one binding. As to chain 1 G104M, the Kd in series [1] is at least 10 µM. Moreover, the yeast surface expression in series [2] came to 0.571.
On to chain 1 G104P, for which the Kd in series [1] is at least 10 µM. The yeast surface expression in series [2] was 0.859.
Consider chain 1 F29S M34S, for which the dissociation constant (Kd) in series [1] is at least 10 µM. Further, in series [2], the yeast surface expression was 0.543.
chain 1 T28Q V37F: in series [1], the Kd came out at 0.021 µM. For the same variant, the yeast surface expression in series [2] came out at 1.1.
Regarding chain 1 G104Q M105C, the Kd in series [1] is at least 10 µM. For the same variant, the yeast surface expression in series [2] is 0.62.
The like results for chain 1 D31V V37E were, in that order, 0.205 µM and 0.807.
Turning to chain 1 T28H Y32I, the Kd in series [1] is at least 10 µM. The yeast surface expression in series [2] amounted to 0.92.
On to chain 1 M105D W108T, for which the dissociation constant (Kd) in series [1] is at least 10 µM. Further, the yeast surface expression in series [2] was determined as 0.455.
In the case of chain 1 W33A N35S W36M, the Kd in series [1] is at least 10 µM. Further, the yeast surface expression in series [2] stood at 0.823.
On to chain 1 S101A G104N, for which, in series [1], the Kd is at least 10 µM. In series [2], the yeast surface expression came to 0.72.
Consider chain 1 W33C M34Q, for which the Kd in series [1] was at least 10 µM. In addition, the yeast surface expression in series [2] was 0.755.
As to chain 1 T28L S30A, the Kd in series [1] came to 0.00175 µM. In series [2], the yeast surface expression was 1.11.
Turning to chain 1 D106M, the Kd in series [1] was at least 10 µM. In addition, the yeast surface expression in series [2] came to 0.574.
In the case of chain 1 G104V M105E, the Kd in series [1] was at least 10 µM. In addition, the yeast surface expression in series [2] was determined as 0.637.
In the case of chain 1 S101L Y103R, the dissociation constant (Kd) in series [1] is at least 10 µM. In addition, the yeast surface expression in series [2] turned out to be 0.702.
The like results for chain 1 Y103D W108H were, in that order, 3.74 µM and 0.708.
The like results for chain 1 F29N W36L were, in that order, at least 10 µM and 0.472.
On to chain 1 S30P V37S, for which, in series [1], the Kd turned out to be 0.000939 µM. Further, the yeast surface expression in series [2] is 0.74.
Consider chain 1 S30P V37Y, for which the Kd in series [1] is 0.0729 µM. In addition, in series [2], the yeast surface expression was determined as 1.25.
For chain 1 F29M V37Y, in that order: 7.72 µM and 1.04.
For chain 1 S30F M34Y, the Kd in series [1] was 0.00871 µM. Besides, the yeast surface expression in series [2] was determined as 0.762.
Turning to chain 1 Y103I G109V, the equilibrium dissociation constant (Kd) in series [1] was at least 10 µM. Moreover, in series [2], the yeast surface expression was 0.222.
As to chain 1 F29A W36S, in series [1], the Kd is at least 10 µM. In addition, the yeast surface expression in series [2] is 0.313.
Turning to chain 1 T28N Y32G, in series [1], the Kd is 0.345 µM. In series [2], the yeast surface expression was 1.19.
Turning to chain 1 D106A W108V, in series [1], the Kd is at least 10 µM. The yeast surface expression in series [2] stood at 0.529.
On to chain 1 Y102M M105K D106W, for which, in series [1], the Kd is at least 10 µM. Moreover, the yeast surface expression in series [2] was determined as 0.527.
Regarding chain 1 F29N V37G, the Kd in series [1] is at least 10 µM. The yeast surface expression in series [2] is 0.135.
For chain 1 Y32S M34S V37M, in that order: at least 10 µM and 0.65.
chain 1 D106R G109H: the Kd in series [1] was at least 10 µM. For the same variant, the yeast surface expression in series [2] turned out to be 0.486.
The like results for chain 1 T28W F29P S30F were, in that order, at least 10 µM and 0.601.
The like results for chain 1 W33A W36H were, in that order, at least 10 µM and 0.549.
For chain 1 Y102V D106N, in series [1], the Kd came to 0.00215 µM. For the same variant, the yeast surface expression in series [2] worked out at 0.889.
chain 1 Y102T D106P: the Kd in series [1] is at least 10 µM. The yeast surface expression in series [2] turned out to be 0.351.
Consider chain 1 T28E F29Q, for which the Kd in series [1] worked out at 0.00827 µM. In addition, in series [2], the yeast surface expression is 1.
Turning to chain 1 D31E W33N, the Kd in series [1] is at least 10 µM. In addition, in series [2], the yeast surface expression came to 0.845.
For chain 1 Y32R W33H W36S, in that order: at least 10 µM and 0.723.
As to chain 1 Y103I D106W, the Kd in series [1] is at least 10 µM. Moreover, in series [2], the yeast surface expression was found to be 0.188.
On to chain 1 Y102N G104I, for which the Kd in series [1] was at least 10 µM. The yeast surface expression in series [2] was found to be 0.859.
On to chain 1 Y107L, for which, in series [1], the Kd was 1.91 µM. The yeast surface expression in series [2] was determined as 1.01.
Turning to chain 1 Y107R, in series [1], the Kd was found to be 0.102 µM. Also, in series [2], the yeast surface expression is 0.767.
For the variant chain 1 N35C V37K, the Kd in series [1] is at least 10 µM. Also, the yeast surface expression in series [2] is 0.542.
With chain 1 S101T M105T, in series [1], the Kd is at least 10 µM. In addition, in series [2], the yeast surface expression was 0.928.
Consider chain 1 G100E Y102G, for which the Kd in series [1] was at least 10 µM. The yeast surface expression in series [2] was determined as 0.488.
For chain 1 G104V Y107K, in series [1], the Kd is at least 10 µM. The yeast surface expression in series [2] was found to be 0.324.
Consider chain 1 T28Y D31W V37T, for which the Kd in series [1] is 0.00638 µM. Moreover, the yeast surface expression in series [2] came to 0.808.
Consider chain 1 G109P, for which, in series [1], the equilibrium dissociation constant (Kd) was at least 10 µM. Moreover, in series [2], the yeast surface expression was 0.312.
For chain 1 G109Q, in that order: at least 10 µM and 0.391.
Consider chain 1 G109R, for which the Kd in series [1] was at least 10 µM. The yeast surface expression in series [2] worked out at 0.297.
Turning to chain 1 W33F N35Q, the Kd in series [1] was at least 10 µM. Also, the yeast surface expression in series [2] was determined as 0.614.
The like results for chain 1 G100W Y103S were, in that order, at least 10 µM and 0.463.
For chain 1 M105A G109F, the equilibrium dissociation constant (Kd) in series [1] is at least 10 µM. In addition, the yeast surface expression in series [2] is 0.203.
With chain 1 S101D D106K, the Kd in series [1] is at least 10 µM. Moreover, in series [2], the yeast surface expression was determined as 0.435.
As for chain 1 T28P Y32R, the Kd in series [1] was 5.66 µM. For the same variant, the yeast surface expression in series [2] amounted to 1.09.
Take chain 1 G100R Y107P W108D: in series [1], the Kd was at least 10 µM. For the same variant, the yeast surface expression in series [2] was 0.43.
Consider chain 1 S30I W36P V37E, for which, in series [1], the Kd is at least 10 µM. Moreover, the yeast surface expression in series [2] came out at 0.93.
For chain 1 M105V D106E, the Kd in series [1] is at least 10 µM. The yeast surface expression in series [2] was found to be 1.02.
On to chain 1 W36Q V37T, for which the Kd in series [1] was at least 10 µM. Besides, in series [2], the yeast surface expression came out at 0.396.
As for chain 1 W36K, the Kd in series [1] was at least 10 µM. Besides, in series [2], the yeast surface expression is 0.794.
